Assay [1] deals with T1, BSA-coupled (GA)15 DPR protein peptide (bovine, conjugated via a bifunctional linker (SMCC) to bovine serum albumin).
T1 construct: also called BSA-(GA)15
As to the kind of experiment: indirect ELISA, BSA-coupled peptide coated, antibody titrated [also D00012 FIG. 3C]. On the procedure: (§1) In brief, dipeptide repeat proteins were synthesized and purified by Schafer-N(Copenhagen, Denmark): (GA)₁₅: H-CHHHHHH(GA)₁₅-OH; (GP)₁₅: H-C(GP)₁₅-OH; (GR)₁₅: H-C(GR)₁₅-OH; (PA)₁₅: H-C(PA)₁₅-OH; (PR)₁₅: H—C(PR)₁₅-OH. DPR protein peptides were then conjugated via a bifunctional linker (SMCC) to bovine serum albumin (BSA). 96-well microplates (Corning Incorporated, Corning, USA) were coated with BSA-coupled or -uncoupled dipeptide repeat protein peptides at a concentration of either 5 μg/ml or 20 μg/ml in coating buffer (15 mM Na₂CO₃, 35 mM NaHCO₃, pH 9.42). Non-specific binding sites were blocked for 1 h at room temperature with PBS/0.1% Tween®-20 containing 2% BSA (Sigma-Aldrich, Buchs, Switzerland). Primary antibodies were diluted to the indicated concentrations and incubated 1 h at room temperature, followed by incubation with a donkey anti-human IgG Fcγ-specific antibody conjugated with HRP (Jackson ImmunoResearch Laboratories, Inc., West Grove, USA). Binding was determined by measurement of HRP activity in a standard colorimetric assay. EC₅₀ values were estimated by non-linear regression using GraphPad Prism software (San Diego, USA).

The target in another assay is T2, GP2: H-(GP)2HHHHHH-NH2.
T2 peptide: H-GPGPHHHHHH-NH2
Put plainly: indirect ELISA, His-tagged peptide coated at 50 ug/ml, antibody titrated [also D00027 FIG. 7N]. An excerpt:
(§2) In brief, dipeptide repeat proteins were synthesized and purified by Schafer-N (Copenhagen, Denmark): GA₂₀: H-(GA)₂₀HHHHHH-NH₂; GA₁₀: H-(GA)₁₀HHHHHH-NH₂; GA₆: H-(GA)₆HHHHHH-NH₂; GA₅: H-(GA)₅HHHHHH-NH₂; GA₄: H-(GA)₄HHHHHH-NH₂; GA₃: H-(GA)₃HHHHHH-NH₂; GA₂: H-(GA)₂HHHHHH-NH₂; GP₂₀: H-(GP)₂₀HHHHHH-NH₂; GP₁₀: H-(GP)₁₀HHHHHH-NH₂; GP₆: H-(GP)₆HHHHHH-NH₂; GP₅: H-(GP)₅HHHHHH-NH₂; GP₄: H-(GP)₄HHHHHH-NH₂; GP₃: H-(GP)₃HHHHHH-NH₂; GP₂: H-(GP)₂HHHHHH-NH₂. GR₂₀: H-(GR)₂₀HHHHHH-NH₂; GR₁₀: H-(GR)₁₀HHHHHH-NH₂; GR₆: H-(GR)₆HHHHHH-NH₂; GR₅: H-(GR)₅HHHHHH-NH₂; GR₄: H-(GR)₄HHHHHH-NH₂; GR₃: H-(GR)₃HHHHHH-NH₂; GR₂: H-(GR)₂HHHHHH-NH₂; PA₂₀: H-(PA)₂₀HHHHHH-NH₂; PA₁₀: H-(PA)₁₀HHHHHH-NH₂; PA₆: H-(PA)₆HHHHHH-NH₂; PA₅: H-(PA)₅HHHHHH-NH₂; PA₄: H-(PA)₄HHHHHH-NH₂; PA₃: H-(PA)₃HHHHHH-NH₂; PA₂: H-(PA)₂HHHHHH-NH₂; PR₂₀: H-(PR)₂₀HHHHHH-NH₂; PR₁₀: H-(PR)₁₀HHHHHH-NH₂; PR₆: H-(PR)₆HHHHHH-NH₂; PR₅: H-(PR)₅HHHHHH-NH₂; PR₄: H-(PR)₄HHHHHH-NH₂; PR₃: H-(PR)₃HHHHHH-NH₂; PR₂: H-(PR)₂HHHHHH-NH₂. 96-well microplates (Corning Incorporated, Corning, USA) were coated with dipeptide repeat protein peptides at a concentration of 50 μg/ml in coating buffer (15 mM Na₂CO₃, 35 mM NaHCO₃, pH 9.42). Non-specific binding sites were blocked for 1 h at room temperature with PBS/0.1% Tween®-20 containing 2% BSA (Sigma-Aldrich, Buchs, Switzerland). Primary antibodies were diluted to the indicated concentrations and incubated 1 h at room temperature, followed by incubation with a donkey anti-human IgG Fcγ-specific antibody conjugated with HRP (Jackson ImmunoResearch Laboratories, Inc., West Grove, USA). Binding was determined by measurement of HRP activity in a standard colorimetric assay. EC₅₀ values were estimated by non-linear regression using GraphPad Prism software (San Diego, USA).

The target of the next assay is T3, GP4: H-(GP)4HHHHHH-NH2.
T3 peptide: H-GPGPGPGPHHHHHH-NH2
The assay is described as above.
From the text: as §2

Another assay has as its target T4, GP3: H-(GP)3HHHHHH-NH2.
T4 peptide: H-GPGPGPHHHHHH-NH2
Described as above.
From the text: as §2

In a further assay the target is T5, GP5: H-(GP)5HHHHHH-NH2.
T5 peptide: H-GPGPGPGPGPHHHHHH-NH2
The description is as above.
From the text: as §2

The next assay has as its target T6, (GR)15: H-C(GR)15-OH.
T6 construct: synthetic, not coupled to BSA; also called poly-GR DPR protein peptide
T6 peptide: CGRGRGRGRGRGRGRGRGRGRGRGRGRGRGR
Put plainly: indirect ELISA, uncoupled peptide coated, antibody titrated [also D00014 FIG. 3I]. The procedure: as §1
(In an ELISA, binding on a coated surface is turned into a signal by an enzyme label.)

A further assay addresses T7, GA3: H-(GA)3HHHHHH-NH2.
T7 peptide: H-GAGAGAHHHHHH-NH2
As to the kind of experiment: indirect ELISA, His-tagged peptide coated at 50 ug/ml, antibody titrated [also D00027 FIG. 7M].
From the text: as §2

The target of another assay is T8, GA2: H-(GA)2HHHHHH-NH2.
T8 peptide: H-GAGAHHHHHH-NH2
The assay is described as above.
From the text: as §2

Another assay addresses T9, GA5: H-(GA)5HHHHHH-NH2.
T9 peptide: H-GAGAGAGAGAHHHHHH-NH2
The assay is described as above.
From the text: as §2

A further assay has as its target T10, GA4: H-(GA)4HHHHHH-NH2.
T10 peptide: H-GAGAGAGAHHHHHH-NH2
Described as above.
From the text: as §2

T1 sequence (peptide, as listed by the source limits assumed, chain 1 of 2): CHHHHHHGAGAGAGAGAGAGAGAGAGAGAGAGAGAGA
T1 sequence (P02769 25-607 limits assumed, chain 2 of 2): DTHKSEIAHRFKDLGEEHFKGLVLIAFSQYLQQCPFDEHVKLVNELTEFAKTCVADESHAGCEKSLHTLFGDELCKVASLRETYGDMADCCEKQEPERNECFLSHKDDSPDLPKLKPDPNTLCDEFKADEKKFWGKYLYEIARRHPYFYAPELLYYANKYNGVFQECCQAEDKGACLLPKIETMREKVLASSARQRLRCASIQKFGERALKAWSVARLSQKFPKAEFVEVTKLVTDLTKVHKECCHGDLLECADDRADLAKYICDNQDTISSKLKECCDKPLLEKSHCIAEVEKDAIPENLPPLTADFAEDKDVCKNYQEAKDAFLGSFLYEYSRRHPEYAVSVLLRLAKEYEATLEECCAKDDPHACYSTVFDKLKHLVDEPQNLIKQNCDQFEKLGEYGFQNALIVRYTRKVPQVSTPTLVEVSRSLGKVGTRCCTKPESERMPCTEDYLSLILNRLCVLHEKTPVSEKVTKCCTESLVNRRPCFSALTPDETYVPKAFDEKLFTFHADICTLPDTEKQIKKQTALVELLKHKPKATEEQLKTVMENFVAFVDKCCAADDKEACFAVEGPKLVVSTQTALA

B1: NI-308.15O7 (antibody, V domains shown)
VH: QVQLVESGGGVVQPGRSLRLSCAASGFTFSNHAMHWVRQAPGKGLEWVAVISYDGENTYYADSIEGRFTISRDNFKNTLFLQMYSLTADDTAMYFCARGGRRGHFTSYYLDYWGQGTLVTVSS
VL: CDIQMTQSPSSLSASVGDRVTITCRASQNIDKYLNWYQQIPGKAPKLLIYAASSLHSGVPSRFSGSGSGTDFSLTISSLQPEDFAIYYCQQSYSSFRTFGQGTKLEIK
In general, EC50 refers to the concentration that produces a half-maximal response. Read a low EC50 as greater potency. In the case of B1, in assay [1], the concentration for a half-maximal effect (EC50) turned out to be 0.41 nM.

B2: NI-308.46E9 (antibody, V domains shown)
VH: QVQLQESGPGLVKPSETLSLTCTVSGASISGSTYYWGWIRQPPGKGLEYIGRIYYSGSTYYNPSLKSRATISVDTSKNQLSLTLSSVTAADTAVYYCVRPFYAGSGNSPFDYWGQGTLVTVSS
VL: CEIVLTQSPATVSVSPGERATLSCRASQSVSTNLAWYQQKPGQPPRLLIYGASTRATGIPARFSGSGSGAEFTLTISSLQSEDFVVYYCQQYNNWPPAFGGGTKVEIK
notes: Recombinant complete human IgG1, kappa
As for B2, the binding result with GP2: H-(GP)2HHHHHH-NH2, in the assay with GP4: H-(GP)4HHHHHH-NH2, in the assay with GP3: H-(GP)3HHHHHH-NH2 and with GP5: H-(GP)5HHHHHH-NH2 was “no binding (tested: about 4x10^5 pM (last point))” each time.

B3: NI-308.6B11 (antibody, V domains shown)
VH: EVQLVQSGAEVKRPGASVKVSCKVSGYTLTELSMHWVRQAPGKGLEWMGGFDPEDGETVYAQKFQGRVTMTEDTSTDTAYMELSSLRSEDTALYHCATYGSSWHWNEGNEGSYYFDYWGQGTLVTVSS
VL: CDIQMTQSPSSLSASVGDRVTITCQASQDISIYLNWYQQKPGKAPKLLIYDASNLETGVPSRFSGSGSGTDFTFTISGLQPEDVARYYCQQYDDLPITFGQGTRLEIK
notes: as for B2
In the assay with (GR)15: H-C(GR)15-OH, B3 yielded an EC50 of 1.3 nM. Further, the binding result in the assay with GA3: H-(GA)3HHHHHH-NH2, in the assay with GA2: H-(GA)2HHHHHH-NH2, with GA5: H-(GA)5HHHHHH-NH2 and with GA4: H-(GA)4HHHHHH-NH2 was “no binding (tested: about 4x10^5 pM (last point))” in each case.

Values taken from patent US20200010567A1 (NEURIMMUNE, published 2020).
